This is an account of results in the RNAGym collection of RNA variant scans (doi:10.1073/pnas.2313332121).

Sequences and labels used below:
B1: TPR t1 (parent)
chain: GACCAAUCUGCCCUCAGAGCUCGAGAACAUCUUCGGAUGCAGAGGAGGCAGGCUUCGGUGGCGCGAUAGCGCCAACGUCCUCAACCUCCAAUGCAUCCCACCACAUGAUGAUGCCUGAAGAGCCUUGGUUUUUUG

Variants of B1 are the subject of the series. Nature of the series: polymerase ribozyme fitness, log enrichment relative to wild type (log ratio); higher = more active; in vitro selection for triplet polymerase activity. Summed up: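 The heterodimeric triplet polymerase ribozyme's subunits were each mutagenized into PCR-built libraries and transcribed. Every library was selected once, in triplicate, by annealing with a biotinylated primer, the partner subunit and triplets, incubating frozen at −7 °C, gel-excising extended constructs, capturing on streptavidin beads and running RT-PCR. Input and output libraries were Illumina-sequenced, with genotypes kept only at ≥10 input reads and ≥1 read per output. Fitness, from inverse-variance-weighted replicate averages, is the base-2 logarithm of genotype enrichment over wild-type enrichment.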
As to GACCAAUCUGCCUUCAGAGCUCGAGAACAUCUUCGGAUGCUGAGGAGGCAGGCUUCGGUGGCGCGAUAGCGCCAACGUCCUCAACCUCCAAUGCAUCCCACCACAUGAUGAUGCCUGAAGAGCCUUGGUUUUUUG, the “polymerase ribozyme fitness (log ratio)” value was -0.968.

For the variant GACCAAUCUGCCCUCAGAGCUCGAGAACAUCUUCGGAUGCAGAGGAGGCAGGCUUUGGUGGCGCGAUAGCGCCAACGUCCUCAACCUCCAAUGCAUCCCACCACCUGAUGAUGCCUGAAGAGUCUUGGUUUUUUG, the “polymerase ribozyme fitness (log ratio)” value was -1.18. The result for GACCAAUCUGCCCUCAGAGCUCGAGAACAUCUUCGGAUGUAGAGGAGGCAGGCUUCGGUAGCGCGAUAGCGCCAACGUCCUCAACCUCCAAUGCAUCCCACCACAUGAUGAUGCCUGAAUAGCCUUGGUUUUUUG reads -0.0652. The result for GACCAAUCUGCCAUCAGAGCUCGAGAACAUCUUCGGAUGCAGAAGAGGCAGGCUUCGGUGGCGCGAUAGCGCCAACGUCCUCAACCUCCAAUGCAUCCCACCACAUGAUGAUGCCUGAAGAGCCUUCGUUCUUUG reads -2.25. Take GACCAAUCUGCCCUCAGAGCUCGAGAACAUCUUCGGAUGCAGAGGAGGCAGGCUUCGGUGGUUCGAUAGCGCCAACGUCCUCAACCUCCAAUGCAUCCCACCCCAUGAUGAUGACUGAAGAGCCUUGGUUUUUUG: the “polymerase ribozyme fitness (log ratio)” value was -4.66. The result for GACCAAUCUGCCCUCAGAGCUCGAGAACAUCUUCGGAUGCAGAGGAGGCAGGCUUCGGUGGCGCGAUAGCGACAACGUCCUCAACCUCCAAUGCAUCCCACCACAUGAUGAUGACUGAAGAACCUUGGUUUUUUG reads -2.11; that for GACCAAUCUGCCCUCAGAGCUCGAGAACAUCUUCGGAUGCAGAGGAGGCAGGCUUCGGUGGCGCGAUAGCGCCAACGUCCUCAACCUCCAAUGCAUCCCAUCACAUGAUGAUGCCUGAAGGGCCUAGGUUUUUUG, 1.07. Take GACCAAUUUGCCCUCAGAGCUCGAGAACAUCUUCGGAUGCAGAGUAGGCAGGCUUCGGCGGCGCGAUAGCGCCAACGUCCUCAACCUCCAAAGCAUCCCACCACAUGAUGAUGCCUGAAGAGCCUUGGUUUUUUG: the “polymerase ribozyme fitness (log ratio)” value is -4.17. Then GACCAAUCUGCCCUCAGAGCUCGAGAACAUCUUCGGAUGCAGAGGAAGCAGGCUUCGGUGGCGCGAUAACGCCAACCUCCUCAACCUCCAAUGCAUCCUACCACAUGAUGAUGGCUGAAGAGCCUUGGUUUUUUG, with -6.85; and GACCAAUCUGCCCUCAGAGCUCGAGAACACCUUCGGAUGCAGAUGAGGCGGGCUUCGGUGGCGCGAUAGCGCCAACGUCCUCAACCUUCAAUGCAUCCCACCACAUGAUGAUGCCUGAAGAGCCUUGGUUUUUUG, with -2.96; and GUCCAAUCUGCCAUCAGAGCUCGAGAAUAUCUUCGGAUGCAGAGGAGGCAGGCUUCGGUGGCGCGAUAGCGCCAACGUCCUCAACCUCCAAUGCAUCCCACCACAUGAUGAGGCCUGAAGAGCCUUGGUUUUUUG, with -6.

Turning to GACCAAUCUGCCCUCAGAGCUCGAGAACAUCUUCGGAUGCAGAUUAGGCAGGCUUCGGUCGCGCGAUAGCGCCAACGUCCUCAACCUCCAAUGCAUCCCAUCACAUGAUGAUGCCUGAAGGGCCUUGGUUCUUUG, the “polymerase ribozyme fitness (log ratio)” value was -0.695. For the variant GACCAACCUCCCCUCAGAGCUCGAGAACAUCUUCGGAUGCAGAGGAGGCAGGCUUCGGUGGCGCGAUAGCGCCAACGUCCUCCACCUCCAAUGCAUCCCACCACAUGAUGAUGCUUGAAGAGCCUUGGUUUUUUG, the “polymerase ribozyme fitness (log ratio)” value is -1.32. Take GACCAAUCUGCCCUGAGAGCUCGAGAACAUCUUCGGAUGCACAGGAGGCAGGCUUCGGUUGCGCGAUAGCGCCAACGUCCUCAACCUCCAAUGUAUCCCACCACAUGAUGAUGCCUGUAGAGCCUUGGUUUUUUG: the “polymerase ribozyme fitness (log ratio)” value was -3.25. For the variant GACCAAUCUGCUCUCAGAGCUAGAGAACAUCUUCGGAUGCAGAGGAGGCAGGCUUCGGUGGCGCGAUAGCGCCAACGUCCUCAACCUCCAAUGCAUCCCACCACAUGAUGAUGCCUGAAGAGCCUUGGUUUUUUG, the “polymerase ribozyme fitness (log ratio)” value is -4.93. Then GACCAAUCUGCCCUCAGAGCUCGAGAACAUCUUCGGAUGCAGAGGAGGCAGGCUUCGGUGGCGCGAUAGCGCCAACAUCCUCAUCCUCCAAUGCAUCCCACCACAUGAUGAGGCCUGAAGAGCCUUGGUUUUUUG, with -2.45. Then GACCAAUCUGCCCUCAGAGCUCGAGAACAUCUUCGGAUGCAGAGGAGGCAGGCUUCGGUGGCGCGAUAGCGCCAACGUCCUCAAUCUCCAAUGCAUCCCCCCACAUGAUGAUGCCUGAAGAGCCUUGGUUUUUUG, with -1.76; and GACCAAUCUGCCCUCAGAGCUCGAGAACAUCUUGGGAUGCAGAGGAGGCAGGCUUCGGUGACGCGAUAGCGCCAACGUCCUCAACCUCCAAUGCAUCCCACCACAUGAUGAUUCCUGAAGAUCCUUGGUUUUUUG, with -7.08; and GACCAAUCUGCCCUCAGAGCUCGAGAACAUCUUAGGAUGCAGAGGAGGCAGGCUUCGGUGGCGCGAUAGCGCCAACGUCCUCAACCUCUAAUGCAUCCCACCACAUGAUGAUGCCUUAAGAGCCUUGGUUUUUUG, with -5.32.

GACCAAUUUGCCCUCAGAGCUCGAGAACAUCUUCGGAUGCAGAAGAGGCAGGCUUCGGUGGCGCGAUAGCGCCAACGUCCUCAACCUCCAAUGCAUCCCACCACAUGAUGAUGCCUGAAGAGCCUUGGUUUUUUG: the “polymerase ribozyme fitness (log ratio)” value was -0.0714. The result for GACCAAUCUGCACACAGAGCUCGAGAACAUCUUCGGAUGCAGAGGAGGCAGGCUUCGGUGGCGCGAUAGCGCCAACGUCCUCAACCAUCAAUGCAUCCCACCACAUGAUGAUGCCUGAAGAGCCUUGGUUUUUUG reads -4.28; that for GACCAAUCUGCCAUCAGAGCUCGAGAACAUCUUCGGAUGCAGAGGAGGCAGGCUUCGGUGUCGCGAUAGCGCCAACGUCCUCAACCUCCAACGCAUCCCACCACAUGAUGAUGACUGAAGAGCCUUGGUUUUUUG, -3.9; that for GACCAAUCUGCCCUCAGAGCUCGAGAACAUCUUCGGAUAGAGAGGAGGCAGGCUUCGGUGGCGCGAUAGCGCCAACGUCCUCAACCUCCAAUGCAUCCCACCACAUGAUGAUGCCUGAAGAGCCUUGGUUUUUUG, -1.68. With GACCAAUAUGCCCUCAGAGCUCGAGAACAUCUUCGGAUGCAGAGGUGGCAGGCUUCGGUGGCGCGAUAGCGCCAACGUCCUCAACCUCCAAUGCAUCCCACCACAUGAUGAUGCCUGAAGAGCCUUGGUUUUUUG, the “polymerase ribozyme fitness (log ratio)” value was -1.5.

As to GACCAAUCUUCCCGCAGAGCUCGAGAACAUCUUCGGAUGCAGAGGAGGCAGGCUUCGGUGGCGCGAUAGCGCCAACGUCCUCAACCUCCAAUGCAUCCCACCACAUGAUGAUGCCCGAAGAGCCUUGGUUUUUUG, the “polymerase ribozyme fitness (log ratio)” value is -1.69.

Take GACCAAUCUGCCCUCAGAGCUUGAGAACAUCUUCGGAUGCAGAGGAGGCAGGCUUCGGUAGCGCGAUAGCGCCAACGUCCUCAACCUCCAAUGCAUCCCACCACAUGAUGAUGCCUGAAGAGCCUUGGUUUUUUG: the “polymerase ribozyme fitness (log ratio)” value was -3.85.

As to GACCAAUCUGUCCUCAGAGCUCGAGAACAUCUUCGGAUGCAGAGGAGGCAGGCUUCGGUGGCGCGAUAGAGCCAACGUCCUCAACCUCCAAUGCAUCCCACCACAUGAUGAUGCCUGAAGAGCCUUGGAUUUUUG, the “polymerase ribozyme fitness (log ratio)” value is -3.59.

Take GACCAAUCUGCCCUCAGAGCUCGAGAACAUCUUCGGAUGCAGAGGAGGCAGGCUUCGGUGGCACGAUAGCGCCUACGUCCUCAACCUCCAAUGCAUCCCACUACAUGAUGUUGCCUGAAGAGCCUUGGGUUUUUG: the “polymerase ribozyme fitness (log ratio)” value was -5.79. As to GACCAAUCUGCCCUCAGAGCUCGAGAACAUCUUCGGAUGCAGAGGAGACAGGCUUCGGUAGCGCGAUAGCGCCAACGCCCUCAACCUCCAAUGCAUCCCACCACAUGAAUAUGCCUGAAGAGCCUUGGUUUUUUG, the “polymerase ribozyme fitness (log ratio)” value was -4.9. Regarding GACCAAUCUGCCCUUAGAGCUCGAGAACAUCUUCGGCUGCAGAGGAGGCAGGCUUCGGUGGCGCGAUAGCGCCAAGGUCCUCAACCUCCAAUGCAUCCCACCACAUGAUGAUGCCUGAAGAGCCUUGGUUUUUUG, the “polymerase ribozyme fitness (log ratio)” value was -2.14. Then GACCAAUCUGCCCUCAGAGCUCGAGAACAUCUUCGGAUGGAGAGGAGGCAGGCUUCGGUGGUGCGAUAGCGACAACGUCCUCGACCUCCAAUGCAUCCCACCACAUGAUGAUGCCUGAAGAGCCUUGGUUUUUUG, with -3.49. Turning to GGCCAAUCUGCCCUCAGAGUUCGAGAACAUCUUCGGAUGCAGAGGAGGCAGGCUUCGGUGGCGCGAUAGCGCCAACGUCCUCAACCUCCAAUGCAUCCCACCACAUGAUGAUGCCUGAAGAGCCUUGGUUUUUUG, the “polymerase ribozyme fitness (log ratio)” value was -1.26.

In the case of GACCAAUCUGCCCUCAGAGCUCGAGAACAUCUUCGGAUGCAGAGGAGGCAGGUUUCGGUGGCGCGAUAGCGCCAACGUCCUCAACCUCCAAUACAUCCCACCACAUGAUGAUGCCUGAAGAGCCUUGGUUUUUUG, the “polymerase ribozyme fitness (log ratio)” value is -0.887.

Regarding GACCAAUCUGCCCUCAGAGCUCGAGAACAUCUUCGGAUGCAGAGGAGGCAGGCUUCGGUGGCGCGAUAGCGCCAACGACCUCAACCUCCAAUGCGUCCCACCACAUGAUGAUGCCUGAAGAGCCUUGGUUUUUUG, the “polymerase ribozyme fitness (log ratio)” value was -0.764. In the case of GACCAAUCUGCCCUCAGAUCUCGAGAACAUCUUCGGAUGCAGAGGAGGCAGGCUUCGGUGGCGCGAUAGCGCCUACGUCCUCAACCUCCAAUGCAUCCCACCACAUGAUGAUACCUGAAGAGCCUUGGUUUUUUG, the “polymerase ribozyme fitness (log ratio)” value is -2.19. Then GACCAAUCUGCCCUCAGAGCUCGAGAACAUCUUCGGAUGCAGAGGAGGCAGGCUUCGGUAGCGGGAUAUCGCCAACGUCCUCAACCUCCAAUGCAUCCCACCACAUGAUGAUGCCUGAAGAGCCUUGGUUUAUUG, with -0.296; and GACCAAUCUGCCCUCACAGCUCGAGAACAUCUUCGGAUGCAGAGGAGGCAGGCUUCGGUGGCGCGAUAGCGUCAACGGCCUCAACCUCCAAUGCAUCCCACCACAUGAUGAUGCCAGACAAGCCUUGGUUUUUUG, with -5.61.

Take GACCAAUCUGCCCUCAGAGCUCGAGAACAUCUUCGCAUGCAGAGGAGGCAGGCUUCGGUGGCGCGAUAGCGCCAACGUCCUCAACCUCCAAUGCAUCCCACCACAUGAUGAUUCCUGAAGAGCCUUGGAUUUUUG: the “polymerase ribozyme fitness (log ratio)” value was -4.27. Then GACCAAUCUGCCCUCAGAGCUCGAGAACAUCUUCGGAUGCAGAGGAGGCAGGCUUCGGUGGAGCGAUAGCGCCAACGUCCUCAACCUCCAAUGCAUCCCACCACAUGAGUAUGCCUGAAGAGCCUUGGUUUUUUG, with -4.7. The result for GACCAAUCUGGCCUCAGAGCUCGAGAACAUCUUCGGAUGCAGAGGAGGCAAGCUUCGGUGGCGCGAUAGCGACAACGUCCUCAACCUCCAAUGCAUCCCACCACAUGAUGAUGCCUGAAGAGCCUUGGUUUUUUG reads -2.19. Regarding GACCAAUCUGCCUUCAGAGCUCGAGAACAUCUUCGGAUGCAGAGGAGGCAGGCUUCGGUGGCGCGAUAGCGCCAACGUCCUCAACCUCCAAUGCAUCCCACCACAGGAUGAUGCCUGAAGAGCCUUGGUUUUUUG, the “polymerase ribozyme fitness (log ratio)” value was -0.787. Consider GACCAAUCUGCCUUCAGAGCUCGAGAACAUCUUCGGAUGCAGAGGAGGCAGGCUUCGGUGCCGCGAUAGCGCCAACGUCCUCAACCUCCAAUUCAUCCCACCACAUGAUGAUGCCUGAAGAGCCUUGGUUUCUUG, for which the “polymerase ribozyme fitness (log ratio)” value was -2.93.
